Measured values published in patent publication EP1591456A1 (Genentech Inc., dated 2005).

Molecular target: T1, recombinant human DAF (human, UniProt P08174 35-353, limits assumed)
T1 construct: also called recombinant human decay accelerating factor; CD55
T1 sequence (looked up): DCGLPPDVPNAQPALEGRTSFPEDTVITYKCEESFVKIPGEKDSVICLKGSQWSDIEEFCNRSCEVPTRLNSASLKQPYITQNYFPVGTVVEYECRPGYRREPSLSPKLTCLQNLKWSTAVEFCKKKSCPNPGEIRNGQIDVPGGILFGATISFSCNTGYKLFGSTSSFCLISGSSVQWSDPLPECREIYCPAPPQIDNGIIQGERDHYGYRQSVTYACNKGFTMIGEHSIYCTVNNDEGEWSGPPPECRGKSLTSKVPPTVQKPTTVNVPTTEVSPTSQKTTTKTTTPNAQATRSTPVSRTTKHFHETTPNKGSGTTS
Assay: SPR (BIACORE 1000), recombinant human DAF on CM-5 chip, LU30 scFv 25-100 nM injected

B1: LU30 scFv fragment (scFv, V domains shown)
VH: QVKLQESGGGLVQPGGSLKLSCAASGFTFSGYGMSWIRQTPDKRLEWVATINSGGSYTYYSDSVKGRFTISRDNVKNTLYLQMSSLKSEDTAMYYCARRNGTLYYYLMDYWGRGTLVTVSS
VL: QSVLTQPPSASGSPGQSVTISCTGTSSDVGGYNYVSWYQQHPGKAPKFMIYDVSKRPSGVSNRFSGSKSGNTASLTISGVQAEDEADYYCSSYTSASTVIFGGGTKLTVL
notes: Human scFv from a naive phage library (Vaughan et al.), secreted from E. coli and purified by its His tag; The full scFv is said to be under GenBank AF117206; also called clone LU30
Kd: 13 nM
koff: 0.0045 s⁻¹
kon: 340000 M⁻¹ s⁻¹
